Laboratory results: US20140371152A1 (DOSHISHA, published 2014)

Biological target: T1, Amyloid β 1-9 polypeptide corresponding to the N-terminal region of βCTF
T1 construct: Screening target and KD partner
Assay: dissociation constant against the Amyloid β 1-9 peptide; method not stated

B1: #4 polypeptide (peptide)
peptide: Ac-MHLVICDCYCTTDICYCYSCTPN-NH2
modifications: cysteine pairing not given here
notes: Synthetic peptide found by screening against Amyloid β 1-9; used dissolved in DMSO; also called peptide name #4
Q: How did the Kd turn out when B1 was run?
A: 2620 nM
